Test results published in patent US20260234242A1 (HAINAN SIMCERE ZAIMING PHARMACEUTICAL, published 2026).

T1: human CDH6 with EC1 removed, on HEK293T cells (HEK293T-hCDH6-EC1 deletion) (human, UniProt P55285 160-790)
T1 construct: Signal peptide not removed here
T1 sequence: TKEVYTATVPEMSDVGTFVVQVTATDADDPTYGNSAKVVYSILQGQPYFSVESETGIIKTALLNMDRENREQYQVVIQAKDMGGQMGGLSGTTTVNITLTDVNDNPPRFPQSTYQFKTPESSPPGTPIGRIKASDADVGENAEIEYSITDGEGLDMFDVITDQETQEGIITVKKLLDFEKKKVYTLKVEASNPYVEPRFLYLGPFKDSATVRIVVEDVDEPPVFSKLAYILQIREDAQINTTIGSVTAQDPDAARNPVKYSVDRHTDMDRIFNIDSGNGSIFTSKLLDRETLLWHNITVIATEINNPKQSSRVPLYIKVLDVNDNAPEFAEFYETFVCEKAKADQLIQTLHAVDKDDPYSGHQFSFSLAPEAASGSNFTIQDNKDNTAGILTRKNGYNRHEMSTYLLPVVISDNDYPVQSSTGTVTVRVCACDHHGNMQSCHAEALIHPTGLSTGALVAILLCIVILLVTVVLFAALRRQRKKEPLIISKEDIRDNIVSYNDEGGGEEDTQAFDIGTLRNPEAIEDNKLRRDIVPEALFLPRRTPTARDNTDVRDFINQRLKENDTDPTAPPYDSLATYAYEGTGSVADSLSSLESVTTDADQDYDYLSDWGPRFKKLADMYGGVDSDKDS

T2: human CDH6 with EC4 removed, on HEK293T cells (HEK293T-hCDH6-EC4 deletion) (human, UniProt P55285 54-790)
T2 construct: Signal peptide not removed here
T2 sequence: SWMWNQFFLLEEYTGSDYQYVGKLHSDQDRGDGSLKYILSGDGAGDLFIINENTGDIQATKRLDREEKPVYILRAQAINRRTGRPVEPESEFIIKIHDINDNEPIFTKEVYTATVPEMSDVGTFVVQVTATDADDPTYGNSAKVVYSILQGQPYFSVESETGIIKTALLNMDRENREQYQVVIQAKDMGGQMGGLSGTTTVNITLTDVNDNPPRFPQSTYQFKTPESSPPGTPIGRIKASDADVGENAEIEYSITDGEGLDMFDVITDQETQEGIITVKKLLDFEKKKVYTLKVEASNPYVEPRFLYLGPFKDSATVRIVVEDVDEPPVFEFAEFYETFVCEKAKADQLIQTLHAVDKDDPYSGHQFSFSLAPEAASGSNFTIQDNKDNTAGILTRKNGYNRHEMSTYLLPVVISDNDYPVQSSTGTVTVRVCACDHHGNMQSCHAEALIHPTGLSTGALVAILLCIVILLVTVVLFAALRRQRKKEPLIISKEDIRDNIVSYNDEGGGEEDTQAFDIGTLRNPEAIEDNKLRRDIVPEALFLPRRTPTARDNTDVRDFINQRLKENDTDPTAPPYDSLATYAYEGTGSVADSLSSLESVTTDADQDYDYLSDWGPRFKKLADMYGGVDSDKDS

T3: human CDH6 on tumor cells (OVCAR3 cells, PA-1 cells) (human, UniProt P55285 54-790)
T3 sequence: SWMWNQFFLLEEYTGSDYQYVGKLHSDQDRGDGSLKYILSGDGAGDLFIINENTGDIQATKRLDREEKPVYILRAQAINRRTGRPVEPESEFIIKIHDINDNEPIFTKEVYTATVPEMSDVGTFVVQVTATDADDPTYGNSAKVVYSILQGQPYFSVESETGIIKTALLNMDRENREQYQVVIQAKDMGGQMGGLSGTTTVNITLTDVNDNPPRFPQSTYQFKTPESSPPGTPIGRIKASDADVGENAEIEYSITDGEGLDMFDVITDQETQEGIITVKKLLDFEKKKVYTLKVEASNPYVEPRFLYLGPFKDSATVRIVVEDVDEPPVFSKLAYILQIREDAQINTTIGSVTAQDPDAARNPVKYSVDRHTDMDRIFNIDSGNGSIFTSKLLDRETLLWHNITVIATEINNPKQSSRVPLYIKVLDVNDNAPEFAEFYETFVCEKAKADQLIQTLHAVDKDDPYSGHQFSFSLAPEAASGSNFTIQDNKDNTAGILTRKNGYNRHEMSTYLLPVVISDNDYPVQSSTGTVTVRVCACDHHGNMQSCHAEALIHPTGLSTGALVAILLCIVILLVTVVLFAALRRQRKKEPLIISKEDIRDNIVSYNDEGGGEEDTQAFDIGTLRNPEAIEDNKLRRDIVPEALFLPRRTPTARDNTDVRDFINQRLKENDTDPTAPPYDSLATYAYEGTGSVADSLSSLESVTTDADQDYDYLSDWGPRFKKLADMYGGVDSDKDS

B1: CHI-CDH6-5 (antibody, human IgG1, kappa, V domains shown)
VH: QVQLQQSGAELVRPGTSVKMSCKAAEYTFTNYWIGWVKQRPGHGLEWIGDLYPGGDHANYNEKFEGKATLTADTSSSTAYMQLSSLTSEDSAIYYCARGMLTTGFDSWGQGTTLTVSS
VL: DIVMSQSPSSLAVSAGEKVTMSCKSSQSLFNSRTRKNYLAWYQQKPGQSPKLLIYWASTRESGVPDRFTGSGSGTDFTLTISSVQAEDLAVYYCKQSYYLRTFGGGTKLEIKR
notes: also called CH1-CDH6-5; chimeric antibody of murine CDH6-5
B2: CHI-CDH6-1 (antibody, human IgG1, kappa, V domains shown)
VH: QVQLQQPGAELVRPGSSVKLSCKASGYTFTNYWMHWVKQRPIEGLEWIGDIDPSHSETHYTQKFKDKATLTVDKSSSTAYMQLSSLTSEDSAVYYCARGDLGRFDYWGQGTTLTVSS
VL: DIVLTQSPASLAVSLGQRATISCRASESVSIHGTHLMHWYQQKSGQPPKLLIYAASNLESGVPARFSGSGSETDFTFNIHPVEEEDAATYFCQQSFEDPWTFGGGTKLEIKR
notes: also called CHI-hCDH6-1; CH1-CDH6-1
B3: CHI-CDH6-7 (antibody, human IgG1, kappa, V domains shown)
VH: EVKLVESGGGLVKPGGSLKVSCAASGFTFSDHGMAWVRQAPGKGPEWVAFISNLAYSIYYADTVTGRFTISRENAKNTLYLEMSSLRSEDTAMYYCARVYVKWYFDVWGAGTTVTVSS
VL: DIQMTQSPASLSASVGETVTITCRASENIDSYLAWYQQKQGKSPQLLVFAATLLADGVPSRFSGSGSGTQYSLKINSLQSEDVARYYCQHYYSTPLTFGAGTKLELKR
notes: also called CH1-CDH6-7; chimeric antibody of murine CDH6-7
B4: DS-H01L02 (antibody, human IgG1, kappa, V domains shown)
VH: EVQLVQSGAEVKKPGASVKVSCKASGYTFTRNFMHWVRQAPGQGLEWMGWIYPGDGETEYAQKFQGRVTITADTSTSTAYMELSSLRSEDTAVYYCARGVYGGFAGGYFDFWGQGTLVTVSS
VL: DIQMTQSPSSLSASVGDRVTITCKASQNIYKNLAWYQQKPGKAPKLLIYDANTLQTGVPSRFSGSGSGSDFTLTISSLQPEDFATYFCQQYYSGWAFGQGTKVEIKR
notes: Positive control, variable regions from WO2018212136A1; also called positive control anti-human CDH6 antibody
B5: CHI-CDH6-3 (antibody, human IgG1, kappa, V domains shown)
VH: QVQLQQPGAELVKPGASVKLSCKASGYTFTSYWIHWVKQRPGQGLEWIGEINPSNGVTNCNENFKSKATLTVDKSSSTAYMQLSSLTSEDSAVYYCTIPNLLWWYFDVWGAGTTVTVSS
VL: DIQMTQSPASLSVSVGETVTITCRASENIYSNLAWYQQKQGKSPQLLVYEATNLADGVPSRFSGSGSGTQYSLKINSLQSEDFGSYYCQHFWGTLWTFGGGTKLEIKR
notes: also called CH1-CDH6-3; chimeric antibody of murine CDH6-3
B6: NOV0712 (antibody, human IgG1, kappa, V domains shown)
VH: QVQLLESGGGLVQPGGSLRLSCAASGFTFSSHGMHWVRQAPGKGLEWVSVISGSGSNTGYADSVKGRFTISRDNSKNTLYLQMNSLRAEDTAVYYCARQWGSYAFDSWGQGTLVTVSS
VL: DIQMTQSPSSLSASVGDRVTITCRASQSISSYLNWYQQKPGKAPKLLIYAVSTLQSGVPSRFSGSGSGTDFTLTISSLQPEDFATYYCQQSGTFPPTTFGQGTKVEIKR
notes: as for B4
B7: CHI-CDH6-4 (antibody, human IgG1, kappa, V domains shown)
VH: QVQLQQSGPELVKPGASVKISCKASGYAFSNFWMNWVKQRPGKGLEWIGWIYPGDGDTNYNGKFKDKATLTADKSSSTAYIQLSSLTSEDSAVYFCARLYDAWGFFDYWGQGTTLTVSS
VL: QIVLTQSPAIMSASPGQKVTITCSASSSVNYMHWYQQKLGSSPKLWIYDKSKLAPGVPARFSGSGSGTSYSLTISSMEAEDAASYFCHQWSSYPPMTFGGGTKLEIKR
notes: also called CH1-CDH6-4; chimeric antibody of murine CDH6-4
B8: CHI-CDH6-12 (antibody, human IgG1, kappa, V domains shown)
VH: EVNLVESGGGLVQPGDSLTLSCSASGFTFTDYYMSWVRQFPGKALEWLALIRNKANSYTTEYSASVKGRFTISRDNSQSILYLQMNALRAEDSATYYCARDSYYSHDGFAYWGQGTLVTVSA
VL: DIVLTQSPASLAVSLGQRATISCRASKSVSTSSYTYMHWYQQKPGQPPKLLIKFASYLESGVPARFSGSGSGTDFTLNIHPVEEEDAATYYCQHSREFPFTFGTGTKLEIKR
notes: also called CH1-CDH6-12; chimeric antibody of murine CDH6-12
B9: CHI-CDH6-14 (antibody, human IgG1, kappa, V domains shown)
VH: QIQLQQSGPELVKPGTSVKISCKASGYTFTDNYINWVRQRPGQGLEWIGWIYPGTGNSYYNEKFKGKATLTVDTSSSTAYMQFSSLTSEDSAVYLCASSYGDSFDYWGQGTTLTVSS
VL: DIQMTQTTSSLSASLGNRVTISCRASQDIRNYLNWYQQKPDGTFKLLISYTSRLHSGVPSRFSGSGSGTDYSLTVSNLEPEDIATYYCQQYSQLPWTFGGGSRLEIKR
notes: also called CHI-hCDH6-14; CH1-CDH6-14
B10: hCDH6-6-H2L2 (antibody, V domains shown)
VH: EVQLVQSGAEVKKPGASVKVSCKASGYTFTDYYMAWVRQAPGQGLEWMGYIFPNSGGTDYSQKFKGRVTLTVDKSTSTVYMELSSLRSEDTAVYYCARELGADYGDYYAMDHWGQGTTVTVSS
VL: DIQMTQSPSSLSASVGDRVTITCRASENIDSYLAWYQQKPGKSPKLLVYSATLLADGVPSRFSGSGSGTDYTLTISSLQPEDFATYYCQHYYRTPPTFGQGTKLEIK
notes: Humanized
B11: hCDH6-1-H2L3 (antibody, V domains shown)
VH: EVQLVQSGAEVKKPGSSVKVSCKASGYTFTNYWMHWVRQAPGQGLEWMGDIDPSHSETHYTQKFKDRVTITVDKSTSTAYMELSSLRSEDTAVYYCARGDLGRFDYWGQGTTVTVSS
VL: DIQMTQSPSSLSASVGDRVTITCRASESVSIHGTHLMHWYQQKPGKPPKLLIYAASNLESGVPSRFSGSGSETDFTFTISSLQPEDIATYYCQQSFEDPWTFGGGTKVEIK
notes: Humanized

target: T1, human CDH6 with EC1 removed, on HEK293T …; experiment: FACS, HEK293T-hCDH6-EC1 deletion cells

B1: no binding.
B2: no binding.
B3: no binding.

target: T2, human CDH6 with EC4 removed, on HEK293T …; experiment: FACS, HEK293T-hCDH6-EC4 deletion cells
Source text: To confirm the binding epitope of the CDH6 antibody, the sequences after removal of these 5 regions were constructed into pcDNA3.1 vectors (purchased from Youbio, Cat. No. VT1001), and transfected into HEK293T cells (purchased from Cell Bank of Chinese Academy of Sciences, Cat. No. SCSP-502) to obtain 5 CDH6 truncated cell lines: HEK293T-hCDH6-EC1 deletion, HEK293T-hCDH6-EC2 deletion, HEK293T-hCDH6-EC3 deletion, HEK293T-hCDH6-EC4 deletion, and HEK293T-hCDH6-EC5 deletion.
The binding activity of the CDH6 chimeric antibodies to these 5 cell lines was assayed by FACS.

First: B4
Second: B1
The “Max MFI” value of the first is lower: 11800 MFI for the first, 18700 MFI for the second.

First: B2
Second: B5
The “Max MFI” value of the first is higher: 30000 MFI for the first, 16800 MFI for the second.

Compared with B6, B7 is higher in “Max MFI” value: 20600 MFI for the first, 22200 MFI for the second.

Going from B8 to B9, the “Max MFI” value rises from 16600 MFI to 26600 MFI.

With B3 the “Max MFI” value was 17400 MFI.

target: T3, human CDH6 on tumor cells (OVCAR3 …); experiment: FACS, OVCAR3 cells, 4° C. arm of endocytosis assay
Description: OVCAR3 cells were cultured until a confluence of 90% was reached, the medium was removed by pipetting, the cells were washed once with PBS, and then treated with an enzyme-free cell dissociation solution (Versene, purchased from Gibco, Cat. No. 15040-066) and the cells were collected. The cells were washed once with PBS, counted, resuspended to 2×10⁶ cells/mL in an FACS buffer (PBS+2% FBS), and then added to two 96-well plates at 50 μL/well. The chimeric antibodies were diluted with FACS buffer (PBS+2% FBS) to 10 μg/mL and separately added to the two 96-well plates at 50 μL/well, and the plates were incubated at 4° C. for 1 h. After the cells were washed 3 times with PBS, the cells were resuspended in an FACS buffer. One 96-well plate was incubated at 4° C. for 1 h, and the other 96-well plate was incubated at 37° C. for 1 h. […] After the plates were centrifuged and washed 2 times with PBS, the cells were resuspended in an FACS buffer. The mean fluorescence intensity (MFI) was measured using FACS Canton II (BD). The chimeric antibodies tested all had good endocytic activity.
Some of the antibodies were selected for the endocytic activity assay, and the method for assaying the endocytic activity of the humanized antibodies in OVCAR3 cells was the same as that in 2.4. The humanized antibodies tested all had good endocytic activity.

First: B4
Second: B10
The “MFI_4° C.” value of the first is lower: 11400 MFI for the first, 20500 MFI for the second.

Going from B6 to B11, the “MFI_4° C.” value rises from 13600 MFI to 20200 MFI.
